This assay has as its target T1, integrin ανβ3 on K562 integrin ανβ3-overexpressing cells (UniProt P06756 31-1048; P05106 27-788).
T1 construct: whole, on cells; Heterodimer overexpressed on K562 cells; Parental K562 cells served as the comparison; also called K562 integrin ανβ3 cells
In words: FACS on K562 integrin ανβ3-overexpressing cells, 100 nM antibody with 300 IU/ml heparin.

Description: Specifically, each of a K562 cell line and a K562 integrin ανβ3-overexpressing cell line was added to 1.5 ml at a density of 2×10⁵ cells, then washed twice with washing buffer (pH 7.4 PBS, 2% FBS). […] The cells were washed twice with washing buffer, and then stained with an Alexa488 (green fluorescence)-labeled antibody (Invitrogen) that specifically recognizes human IgG, at 4° for 1 hour. Next, the cells were washed twice with washing buffer, and analyzed by FACS.

B1: RGD10 peptide-fused anti-Ras•GTP iMab RT11 (antibody, V domains shown)
VH: EVQLVESGGGLVQPGGSLRLSCAASGFTFSSYSMSWVRQAPGKGLEWVSYISRTSHTTYYADSVKGRFTISRDNSKNTLYLQMNSLRAEDTAVYYCARGFFMDYWGQGTLVTVSS
VL: DLVMTQSPSSLSASVGDRVTITCKSSQSLFNSRTRKNYLAWYQQKPGKAPKLLIYWASTRESGVPSRFSGSGSGTDFTLTISSLQPEDFATYYCQQYYYHMYTFGQGTKVEIKR
notes: also called RGD10-RT11; RGD10 peptide-fused RT11
Consider B1, for which the binding result is “binds”.

Source of the values: patent US20170158777A1 (ORUM THERAPEUTICS, published 2017).
